By stoichiometry N is commonly meant a count of units in the complex or per binding partner.

Experimental findings from publication PMC9809158 (Nature structural & molecular biology, 2022) are described below.

“And” between values parts separate entries of the source, which are not always exact repeats. Equal entries are not always repeated. Where two headings read alike, the source gives them in different places.

The target in assay [1] is full-length NaVSp1 (from His-MBP-NaVSp1), reconstituted in lipid nanodiscs or amphipol A8-35 (Silicibacter pomeroyi). Put plainly: SEC-MALS.
Assay [2] deals with NaVAb1p (Alcanivorax borkumensis NaVAb1 'pore only' protein), crystallised from bicelles (Alcanivorax borkumensis). Put plainly: crystal structure.
The target of assay [3] is T1, full-length NaVSp1 (from His-MBP-NaVSp1), reconstituted in lipid nanodiscs or amphipol A8-35 (Silicibacter pomeroyi).
T1 chain: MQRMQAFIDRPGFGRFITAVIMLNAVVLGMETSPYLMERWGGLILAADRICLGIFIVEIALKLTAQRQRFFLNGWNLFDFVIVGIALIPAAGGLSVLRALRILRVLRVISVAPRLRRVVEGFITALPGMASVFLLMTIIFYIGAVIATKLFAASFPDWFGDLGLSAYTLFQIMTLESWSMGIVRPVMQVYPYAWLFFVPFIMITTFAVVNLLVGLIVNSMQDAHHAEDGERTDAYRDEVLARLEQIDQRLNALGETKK
Nature of the assay: SEC-MALS. For orientation: SEC sorts molecules by how far they enter the pores of the column.

Assay [4] deals with full-length NaVSp1 with C-terminal GFP (Silicibacter (Ruegeria) pomeroyi, entry …, UniProt F7IVA8). Put plainly: fluorescence-detection size-exclusion chromatography.
For assay [5], the target named is full-length NaVAe1 with C-terminal GFP (Alkalilimnicola ehrlichii, entry strain …, UniProt Q0ABW0). The assay is described as above.

In the case of “full-length NaVSp1 (from His-MBP-NaVSp1), reconstituted in lipid nanodiscs or amphipol A8-35 (natural protein)”, the stoichiometry N in assay [1] is 4 and 8. Turning to “NaVAb1p (Alcanivorax borkumensis NaVAb1 'pore only' protein), crystallised from bicelles (domain or fragment)”, the stoichiometry N in assay [2] was 4.

B1: sFab SAT09 (synthetic Fab from phage display, selected on NaVAe1/Sp1CTD in nanodiscs) (Fab, V domains shown)
VH: EVQLVESGGGLVQPGGSLRLSCAASGFNFSSSSIHWVRQAPGKGLEWVASISSSSGSTSYADSVKGRFTISADTSKNTAYLQMNSLRAEDTAVYYCARTYGWYYSWWWAFDYWGQGTLVTVSS
VL: DIQMTQSPSSLSASVGDRVTITCRASQSVSSAVAWYQQKPGKAPKLLIYSASSLYSGVPSRFSGSRSGTDFTLTISSLQPEDFATYYCQQGDPRLVTFGQGTKVEIK
As to B1, the “stoichiometry N” value in assay [3] is 2 SAT09 sFabs to one channel. Besides, the binding result in assay [4] and in assay [5] was “binds” in each case.
